Assay results reported in the nanobody polyreactivity screen of Harvey et al. (2022).

Assay: yeast display, Sf9 membrane polyspecificity reagent, FACS + sequencing; frameworks hold sequencing errors
In short: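 Polyreactivity labels are assigned by the sorting gate from which each nanobody was recovered. The gates were low and high (top ~1%), set on anti-HA fluorescence for expression and streptavidin fluorescence for reagent binding. Before sorting, galactose-induced (36–48 hours) yeast display cells were stained for 1 hour at 4 °C with 10% biotinylated, detergent-solubilized Sf9 membrane reagent.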

Row | Sequence | polyreactivity (PSR sort gate)
1 | QVQLVESGGGLVQAGGSLRLSCAASGRTFSQYAMGWYRQAPRKERELVAAISWGGRTYYADSVKGRFTISRDNAKNTVYLQMNSLKPEDTAVYYCAASSKLTYYEENHWGQGTQVTVSS | high polyreactivity
2 | QVQLVESGGGLVQAGGSLRLSCAASGRTFSRNAMGRYRQAPGKVRELVATISSSGVRTYYADSVKGRFTMSRDNAKNTVYLQMNSLKPEETAVYYWAAAWRYYSAASGYDYWGQGTLVTVSS | low polyreactivity
3 | QVQLVESGGGLVQAGGSLRLSCAASGRTFSRYAMGWYRQAPGKERELVAAISKSSGTTSYADSVKGRFTISRDNAKNTVYLQMKSQKPEDTAVYYCAAGITGRYYGVRFSEDYWGQGTQVTVSS | high polyreactivity
4 | QVQLVESGGGLVQAGGSLRLSCAASGRTFSRYAMGWYRQAPGKERELVAAISSSGGSTYYADSVKGRFTISRDNAKNTVYLQMNSLKPEDTAVYYCAKYFIRDNRYDYWGQGTQVTVSS | high polyreactivity
5 | QVQLVESGGGLVQAGGSLRLSCAASGRTFSRYTMGWYRQAPGKERELVARISQRGGSTYYADSVKGRFTISRDYAKNTVYLQMNSLKPEDTAVYYCAKKTYSPYGGYDSWGQGTQVTVSS | high polyreactivity
6 | QVQLVESGGGLVQAGGSLRLSCAASGRTFSSYTMGWYRQAPGKERELVAAISWRGGSTYYADSVKGRFTISRDNAKYTVYLQMTSLKPEDTAVYYCNADVYSTYYNYNYWGQGTQVTVSS | high polyreactivity
7 | QVQLVESGGGLVQAGGSLRLSCAASGRTFSTNAMGLYRQAPGKERELVAAISASGGSTYYADSVKGRFTISRDNAKTTVYLQMNSLKPEDTAVYYCAAYPGQWRTGYDYWGQGTQVTVSS | high polyreactivity
8 | QVQLVESGGGLVQAGGSLRLSCAASGRTFSTNAMGWYRQAPGKEREFVAAITGSGGSTYYADSVKGRFTISRDNAKNTVYLQMNSLKPEDTAVYYCAKRSAWHTYRYGYWGQGTQVTVSS | high polyreactivity
9 | QVQLVESGGGLVQAGGSLRLSCAASGRTFSVNAMGWYRQAPGKERELVAAISWDGGSTYYADSVKGRFTISRDNAKNTVYLQMNSLKPVDTAVYYCNKDLYYAYDYWGQGTQVTVSS | low polyreactivity
10 | QVQLVESGGGLVQAGGSLRLSCAASGRTFSVNDMGWYRQAPWKEREFVAAISFSGGSTYYADSVKGRFTISRDNAKNTVYLLMNSLKPEDSAVYYSAAEAYPSWFYVITGFGIYDYWGQGTQVTGSS | high polyreactivity
11 | QVQLVESGGGLVQAGGSLRLSCAASGRTFSVYAKGWYRQAPGKERELVAGITSGGSTNYADSVKGRFTISRDNAKNTVYLQMNSLKPEDTAVYYCAAENVYAGFGFVSIGDYWGHGTQVTVSS | low polyreactivity
12 | QVQLVESGGGLVQAGGSLRLSCAASGRTFSVYTMGWYREAPGQERELVAAISSTGRTNYADSVKGRFTISRDNAKNTVYLQMNSQKPEATAVYDCNAGVRNSYTRHALVTAYYLYYYWRQGTQVTVSS | high polyreactivity
13 | QVQLVESGGGLVQAGGSLRLSCAASGRTFSYAMGWYRQAPGKERELVAAISSGARTYYADSVKGRFTISRDNAKNTVYLQMNSLIPEDTAVYYCNARSRYEGLNYWGHGTQVTVSS | high polyreactivity
14 | QVQLVESGGGLVQAGGSLRLSCAASGRTFSYAMGWYRQAPGKERELVAGISWSGGRTYYADSVKGRFTISRDNAKNTVYLQMNSLKPEDTAVYYCAAGGRARTYYYWGQGTQVTVSS | high polyreactivity
15 | QVQLVESGGGLVQAGGSLRLSCAASGRTFSYNAMGWYRQAPGKERELVAAINWRAGRTYYADSVKGRFTISRDNAKNTVYLQMNSLKPEDTAVYYCNARSGRGQAYGYWGQGTQVTVSS | high polyreactivity
16 | QVQLVESGGGLVQAGGSLRLSCAASGRTFSYNAMGWYRQAPGKERELVAAITSSGGGTSYADSVKGRFTISRDNAKNTVYLQMNSLKPEDTAVYYCNRVLPHPDGYGVGARGYWGQGTQVTVSS | high polyreactivity
17 | QVQLVESGGGLVQAGGSLRLSCAASGRTFSYNTMGWYRQAPGTERELVARITWGGGSTNYADSVKGRFTISRDNAKNTFYLQMNSLKPEDTAVYYCAAGPSVPYGPQKVDYWGQGTQVTVSS | low polyreactivity
